Reference: patent publication US8580556B2, “Sulfonylurea-responsive repressor proteins” (E. I. du Pont de Nemours and Company, priority 2008, dated 2013)

B1: L1-9: library L1 hit, sulfonylurea-responsive TetR(B) variant, parent of L2 and L4 (protein)
chain: MGSRLDKSKVINSALELLNEVGIEGLTTRKLAQKLGVEQPTLYWHVKNKRALLDALAIEMLDRHATHFCPLEGESWQDFLRNNAKSMRCALLSHRDGAKVCLGTGFTEKQYETAENSLAFLCQQGFSLENALYAMQAVCIFTLGCVLLDQELQVAKEERETPTTDSMPPLLRQALELKDHQGAEPAFLFGLELIICGLEKQLKCESGS
modifications: Sulfonylurea responsive repressor L1-09
B2: L1-2: library L1 hit, sulfonylurea-responsive TetR(B) variant, SEQ ID NO: 3 (protein)
chain: MGSRLDKSKVINSALELLNEVGIEGLTTRKLAQKLGVEQPTLYWHVKNKRALLDALAIEMLDRHATHFCPLEGESWQDFLRNNAKSFRCALLSHRDGAKVCLGTAVTEKQYETMENILAFLCQQGFSLENALYARRAVIAFTLGCVLWDQEYQVAKEERETPTTDSMPPLLRQARELIDHQGAEPAFLFGLELIICGLEKQLKCESGS
modifications: Sulfonylurea responsive repressor L1-02
B3: L1-20: library L1 hit, sulfonylurea-responsive TetR(B) variant, SEQ ID NO: 6 (protein)
chain: MGSRLDKSKVINSALELLNEVGIEGLTTRKLAQKLGVEQPTLYWHVKNKRALLDALAIEMMDRHQTHFCPLEGESWQDFLRNNAKSMRCALLSHRDGAKVFLGTAWTEKQYETVENLLAFLCQQGFSLENALYALNAVATFTLGCVLWDQEKQVAKEERETPTTDSMPPLLRQAHELGDHQGAEPAFLFGLELIICGLEKQLKSESGS
modifications: Sulfonylurea responsive repressor L1-20
B4: L1-28: library L1 hit, sulfonylurea-responsive TetR(B) variant (protein)
chain: MGSRLDKSKVINSALELLNEVGIEGLTTRKLAQKLGVEQPTLYWHVKNKRALLDALAIEMLDRHATHFCPLEGESWQDFLRNNAKSMRCALLSHRDGAKVWLGTAWTEKQYETPENVLAFLCQQGFSLENALYASRAVVTFTLGCVLTDQEKQVAKEERETPTTDSMPPLLRQAWELLDHQGAEPAFLFGLELIICGLEKQLKCESGS
modifications: Sulfonylurea responsive repressor L1-28
B5: L1-38: library L1 hit, sulfonylurea-responsive TetR(B) variant (protein)
chain: MGSRLDKSKVINSALELLNEVGIEGLTTRKLAQKLGVEQPTLYWHVKNKRALLDALAIEMADRHHTHFCPLEGESWQDFLRNNAKSMRCALLSHRDGAKVWLGTAWTEKQYETTENMLAFLCQQGFSLENALYAWRAVTMFTLGCVLRDQEWQVAKEERETPTTDSMPPLLRQALELGDHQGAEPAFLFGLELIICGLEKQLKCESGS
modifications: Sulfonylurea responsive repressor L1-38
B6: L1-31: library L1 hit, sulfonylurea-responsive TetR(B) variant (protein)
chain: MGSRLDKSKVINSALELLNEVGIEGLTTRKLAQKLGVEQPTLYWHVKNKRALLDALAIEMLDRHATHFCPLEGESWQDFLRNNAKSMRCALLSHRDGAKVMLGTRATEKQYETVENRLAFLCQQGFSLENALYAVRAVHWFTLGCVLIDQEMQVAKEERETPTTDSMPPLLRQAYELYDHQGAEPAFLFGLELIICGLEKQLKCESGS
modifications: Sulfonylurea responsive repressor L1-31
B7: L1-24: library L1 hit, sulfonylurea-responsive TetR(B) variant (protein)
chain: MGSRLDKSKVINSALELLNEVGIEGLTTRKLAQKLGVEQPTLYWHVKNKRALLDALAIEMLDRHNTHFCPLEGESWQDFLRNSAKSMRCALLSHRDGAKVLLGTAVTEKQYETTENSLAFLCQQGFSLENALYAIRAVRTFTLGCVLVDQERQVAKEERETPTTDSMPPLLRQAKELLDHQGAEPAFLFGLELIICGLEKQLKCESGS
modifications: Sulfonylurea responsive repressor L1-24
B8: L1-29: library L1 hit, sulfonylurea-responsive TetR(B) variant, SEQ ID NO: 10 (protein)
chain: MGSRLDKSKVINSALELLNEVGIEGLTTRKLAQKLGVEQPTLYWHVKNKRALLDALAIEMMDRHQTHFCPLEGESWQDFLRNTAKSMRCALLSHRDGAKVWLGTRWTEKQYETPENMLAFLCQQGFSLENALYAWSAVCNFTLGCVLSDQERQVAKEERETPTTDSMPPLLRQAWELSDHQGAEPAFLFGLELIICGLEKQLKCESGS
modifications: Sulfonylurea responsive repressor L1-29

Each molecule was assayed on tetA promoter (PtetA)-lacZ reporter in E. coli KM3. Settings: 20 μg/ml Ts; 96-well re-test, FIG. 3.
Type: cell-based

Molecule	response to thifensulfuron-methyl (Ts), blue colony color
B1	most intensely responding
B2	most intensely responding
B3	most intensely responding

Same assay, conditions: Table 4; anhydrotetracycline 0.4 μM; 48 hrs at 30° C.

Molecule	relative β-galactosidase activity, inducer atc
B4	0.0
B5	6.4
B6	0.4
B1	0.3
B2	1.2
B7	0.1
B8	0.0
B3	2.0

Same assay, conditions: Table 4; chlorimuron 20 μg/ml (20 ppm); 48 hrs at 30° C.

Molecule	relative β-galactosidase activity, inducer Ci
B4	14.6
B5	15.3
B6	1.1
B1	9.8
B2	13.6
B7	22.1
B8	20.9
B3	13.5

Same assay, conditions: Table 4; chlorsulfuron 20 μg/ml (20 ppm); 48 hrs at 30° C.

Molecule	relative β-galactosidase activity, inducer Cs
B4	5.8
B5	14.0
B6	1.4
B2	4.1
B7	3.3
B8	15.8
B3	22.0

Same assay, conditions: Table 4; ethametsulfuron 20 μg/ml (20 ppm); 48 hrs at 30° C.

Molecule	relative β-galactosidase activity, inducer Es
B4	0.8
B5	14.8
B6	13.7
B2	5.8
B7	0.2
B8	1.7
B3	15.0

Same assay, conditions: Table 4; metsulfuron 20 μg/ml (20 ppm); 48 hrs at 30° C.

Molecule	relative β-galactosidase activity, inducer Ms
B4	18.8
B5	14.7
B6	0.5
B1	1.2
B2	1.9
B7	0.4
B3	12.4

Same assay, conditions: Table 4; nicosulfuron 20 μg/ml (20 ppm); 48 hrs at 30° C.

Molecule	relative β-galactosidase activity, inducer Ns
B4	0.1
B5	8.7
B6	0.5
B1	0.3
B2	1.3
B7	0.3
B8	0.1
B3	1.6

Same assay, conditions: Table 4; no inducer; 48 hrs at 30° C.

Molecule	relative β-galactosidase activity, inducer None
B4	0.0
B5	9.5
B6	0.3
B1	0.3
B2	1.0
B7	0.1
B8	0.0
B3	1.4

Same assay, conditions: Table 4; rimsulfuron 20 μg/ml (20 ppm); 48 hrs at 30° C.

Molecule	relative β-galactosidase activity, inducer Rs
B4	0.2
B5	9.5
B6	0.4
B1	0.4
B2	1.3
B7	0.3
B8	0.1
B3	2.0

Same assay, conditions: Table 4; sulfometuron 20 μg/ml (20 ppm); 48 hrs at 30° C.

Molecule	relative β-galactosidase activity, inducer Sm
B4	1.1
B5	18.3
B6	0.9
B1	0.6
B2	4.7
B7	3.1
B8	2.7
B3	6.0

Same assay, conditions: Table 4; thifensulfuron 20 μg/ml (20 ppm); 48 hrs at 30° C.

Molecule	relative β-galactosidase activity, inducer Ts
B4	0.1
B5	16.7
B6	0.9
B1	1.1
B2	1.6
B7	0.3
B8	0.0
B3	2.6

Same assay, conditions: Table 4; tribenuron 20 μg/ml (20 ppm); 48 hrs at 30° C.

Molecule	relative β-galactosidase activity, inducer Tb
B4	0.3
B5	15.8
B6	0.1
B1	0.4
B2	1.7
B7	1.6
B8	0.3
B3	2.6

Same assay, conditions: Table 8; inducers given as numbers without key

Molecule	Inducer preference
B8	9 (weak)

Same assay, conditions: Table 10; chlorsulfuron 2 ppm; 48 hours at 30° C.

Molecule	relative β-galactosidase activity, inducer Cs
B1	2.2
B8	0.2

Same assay, conditions: Table 10; ethametsulfuron 2 ppm; 48 hours at 30° C.

Molecule	relative β-galactosidase activity, inducer Es
B8	0.3

Same assay, conditions: Table 10; metsulfuron 2 ppm; 48 hours at 30° C.

Molecule	relative β-galactosidase activity, inducer Ms
B1	0.9
B8	0.3

Same assay, conditions: Table 10; no inducer; 48 hours at 30° C.

Molecule	relative β-galactosidase activity, No inducer
B1	0.9
B8	0.1

Same assay, conditions: Table 10; sulfometuron 2 ppm; 48 hours at 30° C.

Molecule	relative β-galactosidase activity, inducer Sm
B1	0.9
B8	0.2
